Test results from PMC11432006.

B1: anti-lysozyme VNAR (lyso-VNAR) C30A; C112.1S (protein)
chain: ARVDQTPQTITKETGESLTINCVLRDSNAALSSTYWYRKKSGSTNEESISKGGRYVETVNSGSKSFSLRINDLTVEDSGTYRCKPESRYGSYDAESAALNDQYGGGTVVTVN
B2: anti-lysozyme VNAR (lyso-VNAR) C30L; C112.1L (protein)
chain: ARVDQTPQTITKETGESLTINCVLRDSNLALSSTYWYRKKSGSTNEESISKGGRYVETVNSGSKSFSLRINDLTVEDSGTYRCKPESRYGSYDAELAALNDQYGGGTVVTVN
B3: anti-lysozyme VNAR (lyso-VNAR) C30W; C112.1V (protein)
chain: ARVDQTPQTITKETGESLTINCVLRDSNWALSSTYWYRKKSGSTNEESISKGGRYVETVNSGSKSFSLRINDLTVEDSGTYRCKPESRYGSYDAEVAALNDQYGGGTVVTVN
B4: anti-lysozyme VNAR (lyso-VNAR) C30G; C112.1A (protein)
chain: ARVDQTPQTITKETGESLTINCVLRDSNGALSSTYWYRKKSGSTNEESISKGGRYVETVNSGSKSFSLRINDLTVEDSGTYRCKPESRYGSYDAEAAALNDQYGGGTVVTVN
B5: anti-lysozyme VNAR (lyso-VNAR) C30L; C112.1A (protein)
chain: ARVDQTPQTITKETGESLTINCVLRDSNLALSSTYWYRKKSGSTNEESISKGGRYVETVNSGSKSFSLRINDLTVEDSGTYRCKPESRYGSYDAEAAALNDQYGGGTVVTVN
B6: anti-lysozyme VNAR (lyso-VNAR) C30G; C112.1L (protein)
chain: ARVDQTPQTITKETGESLTINCVLRDSNGALSSTYWYRKKSGSTNEESISKGGRYVETVNSGSKSFSLRINDLTVEDSGTYRCKPESRYGSYDAELAALNDQYGGGTVVTVN
B7: anti-lysozyme VNAR (lyso-VNAR) C30P; C112.1T (protein)
chain: ARVDQTPQTITKETGESLTINCVLRDSNPALSSTYWYRKKSGSTNEESISKGGRYVETVNSGSKSFSLRINDLTVEDSGTYRCKPESRYGSYDAETAALNDQYGGGTVVTVN

Each binder was assayed against lysozyme from egg, P00698 (assay: SPR). Details: chain shown with the change; lysozyme immobilized, VNAR flowed over; 1:1 fitting model.
Chain of lysozyme from egg, P00698 (P00698 19-147): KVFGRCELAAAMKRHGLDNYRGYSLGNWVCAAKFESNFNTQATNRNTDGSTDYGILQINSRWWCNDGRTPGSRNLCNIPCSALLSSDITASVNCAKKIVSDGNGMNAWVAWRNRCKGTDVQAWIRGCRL
B1 gave a ratio to parent of 31.5.
For B2, the ratio to parent was 100.
With B3 the ratio to parent was 54.3.
Work on B4 yielded a ratio to parent of 24.1.
For B5, the ratio to parent was 19.1.
B6 showed a ratio to parent of 12.7.
B7 was tested, and the ratio to parent was 211.
